Reference: paper PMC7265302

Target: MavC, wild type (Legionella pneumophila) (UniProt Q5ZTL4)
Experiment: ITC

Substance: Lpg2149, wild type (from UniProt Q5ZTL2 1-119) (natural protein)
- Kd: 0.57 nM
